This note sets out measurements from patent publication US20170137818, “APTAMER INHIBITING BIOLOGICAL ACTIVITY OF AUTOTAXIN BY BINDING WITH AUTOTAXIN, AND USE THEREOF” (RIBOMIC INC., published 2017).

Sequences and labels used below:
B1: 12(25) (ssDNA)
DNA: CCTGGACGGAACCAGAATACTTTTGGTCTCCAGG
modifications: 2'-OMe C1,C2,T3,G4,G5,C7,G9,C12,C13,A14,G15,T18,A19,C20,A32,G33,G34; 5' idT, 3' idT
B2: 12(117) (ssDNA)
DNA: B1 DNA
modifications: 2'-OMe C7,G9,A14,G15,A19,C20,A32,G33,G34; PS after G8; 5' 40 kDa PEG (GL2-400GS2) via ssH linker; 3' idT

One series addresses autotaxin (endogenous, human pooled serum) (Homo sapiens, UniProt Q13822 Q13822:36-863). Put plainly: inhibition; LPA production in serum, 5.0 uM.
CCTGGACGGAACCAGAATACTTTTGGTCTCCAGG (ssDNA, 2'-OMe C30,C31) [12(2)]: the activity was found to be 80 % inhibition. Still for that read-out and setting: the figure for CCTGGACGGAACCAGAATACTTTTGGTCTCCAGG (ssDNA, 2'-OMe G4,G5) [12(21)] is 84 % inhibition; for CCTGGACGGAACCAGAATACTTTTGGTCTCCAGG (ssDNA, 2'-OMe T3) [12(39)] it is 85 % inhibition; for CCTGGACGGAACCAGAATACTTTTGGTCTCCAGG (ssDNA, 2'-OMe C28) [12(26)] it is 35 % inhibition. Still for that read-out and setting: the figure for CCTGGACGGAACCAGAATACTTTTGGTCTCCAGG (ssDNA, 2'-OMe G4) [12(35)] is 82 % inhibition. Same read-out and setting: to CCTGGACGGAACCAGAATACTTTTGGTCTCCAGG (ssDNA, 2'-OMe T21) [12(20)] belongs 76 % inhibition; to CCTGGACGGAACCAGAATACTTTTGGTCTCCAGG (ssDNA, 2'-OMe G25) [12(30)], 75 % inhibition; to CCTGGACGGAACCAGAATACTTTTGGTCTCCAGG (ssDNA, 2'-OMe C31) [12(38)], 83 % inhibition. CCTGGACGGAACCAGAATACTTTTGGTCTCCAGG (ssDNA, 2'-OMe T29) [12(9)] registered an activity of 78 % inhibition. For CCTGGACGGAACCAGAATACTTTTGGTCTCCAGG (ssDNA, 5' 40 kDa PEG (GL2-400GS2) via ssH linker, 3' idT) [12(23)], the activity came out at 90 % inhibition. On the same count and under the same terms, to CCTGGACGGAACCAGAATACTTTTGGTCTCCAGG (ssDNA, 2'-OMe T18) [12(17)] belongs 83 % inhibition. Still for that read-out and setting: to CCTGGACGGAACCAGAATACTTTTGGTCTCCAGG (ssDNA, 2'-OMe C2) [12(40)] belongs 84 % inhibition; to CCTGGACGGAACCAGAATACTTTTGGTCTCCAGG (ssDNA, 2'-OMe A14,G15) [12(7)], 88 % inhibition. With CCTGGACGGAACCAGAATACTTTTGGTCTCCAGG (ssDNA, 2'-OMe A16) [12(27)], the activity amounted to 86 % inhibition.

As for CCTGGACGGAACCAGAATACTTTTGGTCTCCAGG (ssDNA, 2'-OMe A32,G33,G34) [12(3)], the activity came out at 92 % inhibition. Still for that read-out and setting: the figure for CCTGGACGGAACCAGAATACTTTTGGTCTCCAGG (ssDNA, 2'-OMe T22) [12(28)] is 64 % inhibition; for CCTGGACGGAACCAGAATACTTTTGGTCTCCAGG (ssDNA, 2'-OMe A19) [12(18)] it is 93 % inhibition.

CCTGGACGGAACCAGAATACTTTTGGTCTCCAGG (ssDNA, 2'-OMe G26) [12(29)] yielded an activity of 84 % inhibition. Same read-out and setting: the figure for CCTGGACGGAACCAGAATACTTTTGGTCTCCAGG (ssDNA, 5' idT, 3' idT) [12(22)] is 91 % inhibition.

CCTGGACGGAACCAGAATACTTTTGGTCTCCAGG (ssDNA, 2'-OMe A6) [12(8)]: the activity is 69 % inhibition. The molecule CCTGGACGGAACCAGAATACTTTTGGTCTCCAGG (ssDNA, 2'-OMe T27) [12(11)] came in with an activity of 38 % inhibition. Turning to CCTGGACGGAACCAGAATACTTTTGGTCTCCAGG (ssDNA, 2'-OMe C12) [12(31)], the activity turned out to be 87 % inhibition. On to CCTGGACGGAACCAGAATACTTTTGGTCTCCAGG (ssDNA, 2'-OMe T23,T24) [12(5)], for which the activity is 15 % inhibition.

For CCTGGACGGAACCAGAATACTTTTGGTCTCCAGG (ssDNA, 2'-OMe G9) [12(14)], the activity is 95 % inhibition. Same read-out and setting: to CCTGGACGGAACCAGAATACTTTTGGTCTCCAGG (ssDNA, 2'-OMe G25,G26) [12(6)] belongs 63 % inhibition; to CCTGGACGGAACCAGAATACTTTTGGTCTCCAGG (ssDNA, 2'-OMe A11) [12(10)], 26 % inhibition.

In the case of CCTGGACGGAACCAGAATACTTTTGGTCTCCAGG (ssDNA, 2'-OMe G8) [12(13)], the activity came out at 74 % inhibition. Consider CCTGGACGGAACCAGAATACTTTTGGTCTCCAGG (ssDNA, 2'-OMe C12,C13) [12(4)], for which the activity was 82 % inhibition. For CCTGGACGGAACCAGAATACTTTTGGTCTCCAGG (ssDNA, 2'-OMe A10) [12(15)], the activity is 68 % inhibition. The molecule CCTGGACGGAACCAGAATACTTTTGGTCTCCAGG (ssDNA, 2'-OMe A17) [12(16)] showed an activity of 83 % inhibition. On the same count and under the same terms, the figure for CCTGGACGGAACCAGAATACTTTTGGTCTCCAGG (ssDNA, 2'-OMe T23) [12(34)] is 55 % inhibition; for CCTGGACGGAACCAGAATACTTTTGGTCTCCAGG (ssDNA, 2'-OMe C13) [12(32)] it is 85 % inhibition; for CCTGGACGGAACCAGAATACTTTTGGTCTCCAGG (ssDNA, 2'-OMe C20) [12(19)] it is 90 % inhibition.

Regarding B1, the activity is 84 % inhibition.

Turning to CCTGGACGGAACCAGAATACTTTTGGTCTCCAGG (ssDNA, 2'-OMe C7,G9,A14,G15,A19,C20,A32,G33,G34; 5' idT, 3' idT) [12(24)], the activity stood at 96 % inhibition. In turn, CCTGGACGGAACCAGAATACTTTTGGTCTCCAGG (ssDNA, 2'-OMe G5) [12(36)] showed an activity of 84 % inhibition.

In turn, CCTGGACGGAACCAGAATACTTTTGGTCTCCAGG (ssDNA, 2'-OMe C7) [12(12)] displayed an activity of 94 % inhibition. Still for that read-out and setting: the figure for CCTGGACGGAACCAGAATACTTTTGGTCTCCAGG (ssDNA, 2'-OMe T24) [12(33)] is 62 % inhibition; for CCTGGACGGAACCAGAATACTTTTGGTCTCCAGG (ssDNA, 2'-OMe C30) [12(37)] it is 85 % inhibition.

The target in the next series is autotaxin (ENPP2/NPP2) (Homo sapiens, UniProt Q13822 Q13822:36-863). Put plainly: inhibition; LPA production, 0.10 uM aptamer, ~92% serum, 37C 3 h.
Regarding CCTGGACGGAACCAGAATACTTTTGGTCTCCAGG (ssDNA, 2'-OMe C7,G9,A14,G15,A19,C20,A32,G33,G34; P-methyl T3; idT 5' and 3') [12(129)], the activity was determined as 73 % inhibition. On the same count and under the same terms, the figure for CCTGGACGGAACCAGAATACTTTTGGTCTCCAGG (ssDNA, 2'-OMe C7,G9,A14,G15,A19,C20,A32,G33,G34; PS after A32; idT 5' and 3') [12(115)] is 77 % inhibition. For the molecule CCTGGACGGAACCAGAATACTTTTGGTCTCCAGG (ssDNA, 2'-OMe C7,G9,A14,G15,A19,C20,A32,G33,G34; PS after G33; idT 5' and 3') [12(116)], the activity amounted to 72 % inhibition. Same read-out and setting: the figure for CCTGGACGGAACCAGAATACTTTTGGTCTCCAGG (ssDNA, 2'-OMe C7,G9,A14,G15,A19,C20,A32,G33,G34; PS after G5; idT 5' and 3') [12(111)] is 60 % inhibition; for CCTGGACGGAACCAGAATACTTTTGGTCTCCAGG (ssDNA, 2'-OMe C7,G9,A14,G15,A19,C20,A32,G33,G34; P-methyl T23; idT 5' and 3') [12(121)] it is 80 % inhibition. The molecule CCTGGACGGAACCAGAATACTTTTGGTCTCCAGG (ssDNA, 2'-OMe C7,G9,A14,G15,A19,C20,A32,G33,G34; P-methyl C1; idT 5' and 3') [12(130)] displayed an activity of 77 % inhibition.

Molecule CCTGGACGGAACCAGAATACTTTTGGTCTCCAGG (ssDNA, 2'-OMe C7,G9,A14,G15,A19,C20,A32,G33,G34; PS after C31; idT 5' and 3') [12(114)] returned an activity of 75 % inhibition. Same read-out and setting: the figure for CCTGGACGGAACCAGAATACTTTTGGTCTCCAGG (ssDNA, 2'-OMe C7,G9,A14,G15,A19,C20,A32,G33,G34; P-methyl T24; idT 5' and 3') [12(120)] is 67 % inhibition; for CCTGGACGGAACCAGAATACTTTTGGTCTCCAGG (ssDNA, 2'-OMe C7,G9,A14,G15,A19,C20,A32,G33,G34; PS after T29; idT 5' and 3') [12(112)] it is 69 % inhibition. The same measure, in the same setting: the figure for CCTGGACGGAACCAGAATACTTTTGGTCTCCAGG (ssDNA, 2'-OMe C7,G9,A14,G15,A19,C20,A32,G33,G34; P-methyl C30; idT 5' and 3') [12(127)] is 79 % inhibition; for CCTGGACGGAACCAGAATACTTTTGGTCTCCAGG (ssDNA, 2'-OMe C7,G9,A14,G15,A19,C20,A32,G33,G34; P-methyl A16; idT 5' and 3') [12(124)] it is 76 % inhibition; for CCTGGACGGAACCAGAATACTTTTGGTCTCCAGG (ssDNA, 2'-OMe C7,G9,A14,G15,A19,C20,A32,G33,G34; P-methyl C31; idT 5' and 3') [12(126)] it is 77 % inhibition.

Molecule B2 gave an activity of 90 % inhibition. Same read-out and setting: to CCTGGACGGAACCAGAATACTTTTGGTCTCCAGG (ssDNA, 2'-OMe C7,G9,A14,G15,A19,C20,A32,G33,G34; P-methyl G5; idT 5' and 3') [12(128)] belongs 78 % inhibition; to CCTGGACGGAACCAGAATACTTTTGGTCTCCAGG (ssDNA, 2'-OMe C7,G9,A14,G15,A19,C20,A32,G33,G34; P-methyl T21; idT 5' and 3') [12(123)], 74 % inhibition; to CCTGGACGGAACCAGAATACTTTTGGTCTCCAGG (ssDNA, 2'-OMe C7,G9,A14,G15,A19,C20,A32,G33,G34; P-methyl A17; idT 5' and 3') [12(125)], 78 % inhibition. On the same count and under the same terms, the figure for CCTGGACGGAACCAGAATACTTTTGGTCTCCAGG (ssDNA, 2'-OMe C7,G9,A14,G15,A19,C20,A32,G33,G34; PS after C30; idT 5' and 3') [12(113)] is 66 % inhibition; for CCTGGACGGAACCAGAATACTTTTGGTCTCCAGG (ssDNA, 2'-OMe C7,G9,A14,G15,A19,C20,A32,G33,G34; P-methyl T22; idT 5' and 3') [12(122)] it is 65 % inhibition.
